Experiments:
[1] = substrate: O=C(O)C(=O)CC1(C(=O)O)C=CC(O)C=C1; assay: ADH and PDH assay: steady-state kinetics and Tyr inhibition, GmncADH D218N; type: biochemical, Glycine max (soybean); settings: other: 0.5 mM NADP^+, pH 7.6, 37° C.
Description: (§1) Kinetic parameters of purified recombinant proteins were determined from assays conducted at varying arogenate (19.5 μM-5 mM) and prephenate concentration (23.4 μM-6 mM). Standard assay conditions were 25 mM HEPES pH 7.6, 50 mM KCl and 10% (v/v) ethylene glycol, and 0.5 mM NADP^+ with varied substrate, concentrations. Reactions were initiated by addition of enzyme and incubated at 37° C. monitored every 10-15 seconds at […] using a microplate reader (Tecan Genios). Kinetic parameters were determined by fitting initial velocity data to the Michaelis-Menten equation using the Origin software (OriginLab).
(§2) Arogenate was prepared by enzymatic conversion of prephenate (Sigma-Aldrich) as previously reported^56. For Tyr inhibition assays, Tyr was dissolved in a slightly basic solution (0.025 N NaOH) due to solubility issues, thus the concentration of lysis buffer was increased to 500 mM HEPES final concentration to buffer against the changes by addition of Tyr in the reaction. Reactions containing varying amounts of Tyr (10 μM-8 mM) with 0.5 mM NADP^+ and either 1 mM arogenate or 0.8 mM prephenate were monitored as above.

[2] = substrate: N[C@@H](CC1(C(=O)O)C=CC(O)C=C1)C(=O)O; assay: as above; type: biochemical, Glycine max (soybean); settings: other: 0.5 mM NADP^+, pH 7.6, 37° C.
Description: as §1, §2

[3] = PDH assay: steady-state kinetics of purified recombinant plant enzymes with prephenate; type: biochemical; settings: prephenate versus arogenate, NADP+ cofactor
Text: As used herein, a polypeptide may “have greater arogenate dehydrogenase activity than prephenate dehydrogenase activity” or “have greater prephenate dehydrogenase activity than arogenate dehydrogenase activity” when the steady-state kinetic parameters (kcat/Km (mM^−1s^−1)) for arogenate dehydrogenase activity are greater than the steady-state parameters (kcat/Km (mM^−1s^−1)) for prephenate dehydrogenase activity or when the steady-state kinetic parameters (kcat/Km (mM^−1s^−1)) for prephenate dehydrogenase activity are greater than the steady-state parameters (kcat/Km (mM^−1s^−1)) for arogenate dehydrogenase activity. Steady-state kinetic parameters may be measured using techniques similar to those described by the inventors in the Examples. Briefly, kinetic parameters of purified polypeptides can be determined from assays conducted at varying arogenate and prephenate concentrations. Standard assay conditions include 25 mM HEPES pH 7.6, 50 mM KCl and 10% (v/v) ethylene glycol, and 0.5 mM NADP^+ with varied substrate, concentrations. Reactions can be initiated by the addition of the polypeptide and incubated at 37° C. monitored every 10-15 seconds at A340nm using a microplate reader. Kinetic parameters may be determined by fitting initial velocity data to the Michaelis-Menten equation using the Origin software.
as §1

[4] = Tyr inhibition assay of ADH activity (arogenate substrate); type: biochemical; settings: Tyr up to 8 mM
Description: as §2

[5] = substrate: O=C(O)C(=O)CC1(C(=O)O)C=CC(O)C=C1; assay: ADH and PDH assay: steady-state kinetics and Tyr inhibition, SolyncADH D224N; type: biochemical, Solanum lycopersicum (tomato); settings: other: 0.5 mM NADP^+, pH 7.6, 37° C.
Description: as §1, §2

[6] = substrate: N[C@@H](CC1(C(=O)O)C=CC(O)C=C1)C(=O)O; assay: as above; type: biochemical, Solanum lycopersicum (tomato); settings: other: 0.5 mM NADP^+, pH 7.6, 37° C.
Description: as §1, §2

[7] = substrate: O=C(O)C(=O)CC1(C(=O)O)C=CC(O)C=C1; assay: ADH and PDH assay: steady-state kinetics and Tyr inhibition, MtncADH D220C; type: biochemical, Medicago truncatula; settings: other: 0.5 mM NADP^+, pH 7.6, 37° C.
Description: as §1, §2

[8] = substrate: N[C@@H](CC1(C(=O)O)C=CC(O)C=C1)C(=O)O; assay: as above; type: biochemical, Medicago truncatula; settings: other: 0.5 mM NADP^+, pH 7.6, 37° C.
Description: as §1, §2

[9] = substrate: O=C(O)C(=O)CC1(C(=O)O)C=CC(O)C=C1; assay: ADH and PDH assay: steady-state kinetics and Tyr inhibition, MtPDH C220D; type: biochemical, Medicago truncatula; settings: other: 0.5 mM NADP^+, pH 7.6, 37° C.
Description: as §1, §2

[10] = substrate: N[C@@H](CC1(C(=O)O)C=CC(O)C=C1)C(=O)O; assay: as above; type: biochemical, Medicago truncatula; settings: other: 0.5 mM NADP^+, pH 7.6, 37° C.
Description: as §1, §2

[11] = substrate: O=C(O)C(=O)CC1(C(=O)O)C=CC(O)C=C1; assay: ADH and PDH assay: steady-state kinetics and Tyr inhibition, GmPDH1 N222D; type: biochemical, Glycine max (soybean); settings: other: 0.5 mM NADP^+, pH 7.6, 37° C.
Description: as §1, §2

[12] = substrate: N[C@@H](CC1(C(=O)O)C=CC(O)C=C1)C(=O)O; assay: as above; type: biochemical, Glycine max (soybean); settings: other: 0.5 mM NADP^+, pH 7.6, 37° C.
Description: as §1, §2

[13] = substrate: O=C(O)C(=O)CC1(C(=O)O)C=CC(O)C=C1; assay: ADH and PDH assay: steady-state kinetics and Tyr inhibition, GmPDH1 N222A; type: biochemical, Glycine max (soybean); settings: other: 0.5 mM NADP^+, pH 7.6, 37° C.
Description: as §1, §2

[14] = substrate: O=C(O)C(=O)CC1(C(=O)O)C=CC(O)C=C1; assay: ADH and PDH assay: steady-state kinetics and Tyr inhibition, GmPDH1 M219T; type: biochemical, Glycine max (soybean); settings: other: 0.5 mM NADP^+, pH 7.6, 37° C.
Description: as §1, §2

[15] = substrate: N[C@@H](CC1(C(=O)O)C=CC(O)C=C1)C(=O)O; assay: as above; type: biochemical, Glycine max (soybean); settings: other: 0.5 mM NADP^+, pH 7.6, 37° C.
Description: as §1, §2

[16] = substrate: O=C(O)C(=O)CC1(C(=O)O)C=CC(O)C=C1; assay: ADH and PDH assay: steady-state kinetics and Tyr inhibition, GmPDH1 M219T/N222D; type: biochemical, Glycine max (soybean); settings: other: 0.5 mM NADP^+, pH 7.6, 37° C.
Description: as §1, §2

[17] = substrate: N[C@@H](CC1(C(=O)O)C=CC(O)C=C1)C(=O)O; assay: as above; type: biochemical, Glycine max (soybean); settings: other: 0.5 mM NADP^+, pH 7.6, 37° C.
Description: as §1, §2

B1: Glycine max GmncADH variant D218N (Glycine max; D218N) (protein)
chain: MSTWSLKIGVVGFGSFGQFLAKTMIKQGHTLRATSRTDYSLLCLPMGIQFFRDVAAFLEADNDVILVCTSILSLSEVLSSMPLTCLKRSTLFVDVLSVKEHPRNLLIKVLPEESDILCTHPMFGPDSGKDGWQDLTFVYDKVRIRDEAICSSFLHIFASEGCRMLQMSCEEHDKIAAKSQFITHTIGRTLAEMDIKSTPIDTKGFHSLVQLKDTTIRNSFDLYSGLFLHNRFAVQELENLEHALHKVKEMLVQRKSEELGLEKTEC
notes: D218N by site-directed mutagenesis
Km [1]: 1980 ± 50 µM | kcat [1]: 11.5 ± 0.5 s⁻¹ | kcat/Km [1]: 5810 M⁻¹ s⁻¹ | Km [2]: 740 ± 140 µM | kcat [2]: 8.6 ± 0.2 s⁻¹ | kcat/Km [2]: 11600 M⁻¹ s⁻¹

B2: GmncADH: noncanonical arogenate dehydrogenase from soybean, wild-type (protein)
chain: MSTWSLKIGVVGFGSFGQFLAKTMIKQGHTLRATSRTDYSLLCLPMGIQFFRDVAAFLEADNDVILVCTSILSLSEVLSSMPLTCLKRSTLFVDVLSVKEHPRNLLIKVLPEESDILCTHPMFGPDSGKDGWQDLTFVYDKVRIRDEAICSSFLHIFASEGCRMLQMSCEEHDKIAAKSQFITHTIGRTLAEMDIKSTPIDTKGFHSLVQLKDTTIRDSFDLYSGLFLHNRFAVQELENLEHALHKVKEMLVQRKSEELGLEKTEC
modifications: GmncADH WT
notes: noncanonical arogenate dehydrogenase from soybean, wild-type
substrate specificity: PDH versus ADH activity (in words) [3]: only displayed activity with arogenate | feedback inhibition by Tyr (in words) [4]: sensitive to Tyr but with IC50 values in the mM range

B3: Solanum lycopersicum SolyncADH variant D224N (Solanum lycopersicum; D224N) (protein)
chain: MSSSSSCQPKTLRIGIIGFGPFAQFLAKTMMKQGHCIHVTSRSDYSELCTDLGILFFRDMGAFLESDNEVIMISTSILSLSQVVESIPFNCLKRPTLFVDVLSVKEHPKDVLLRMMPRECDLLCTHPMFGPESGKDGWEDLTFMYDMVRIRDQPLCSSFLHIFSSEGCKMLEMTCEKHDRLAAQSQFLTHTIGRILSEMEVEPTPIDTKGFQKLVQVKESSVKNSFDLFSGLFIHNRFARQQMKNLEVALEKTKEKLQERSKELQDPIISKF
notes: D224N by site-directed mutagenesis
Km [5]: 2310 ± 100 µM | kcat [5]: 2.4 ± 1 s⁻¹ | kcat/Km [5]: 1040 M⁻¹ s⁻¹ | Km [6]: 1340 ± 480 µM | kcat [6]: 11.7 ± 0.2 s⁻¹ | kcat/Km [6]: 8730 M⁻¹ s⁻¹

B4: Medicago truncatula MtncADH variant D220C, SEQ ID NO: 10 (Medicago truncatula; D220C) (protein)
chain: MSNSPSLKIGIVGFGSFGQFLAKTMIKQGHTLTATSRTDYSHTCLQLGIQFFRDVGTFIEANNDVILICTSIMSFTKVLSSMPLACLKKPTTLFVDVLSVKEHPREVLLRVLPEESDILCTHPMFGPESGKNGWKDLNFMYDKVRIHDEATCSNFLHIFASEGCKMLQMSCEEHDKIAAKSQFITHTIGRTLAEMDIESTPIDTKGFQTLTQLKNTTMRCSFDLYSGLFVHNRFAKQELENLQRALDRVKEMLVQRMREELGPEKD
notes: D220C by site-directed mutagenesis
Km [7]: 740 ± 30 µM | kcat [7]: 10.1 ± 0.5 s⁻¹ | kcat/Km [7]: 13600 M⁻¹ s⁻¹ | Km [8]: 870 ± 30 µM | kcat [8]: 7 ± 0.8 s⁻¹ | kcat/Km [8]: 8050 M⁻¹ s⁻¹

B5: Medicago truncatula MtPDH variant C220D, SEQ ID NO: 1 (Medicago truncatula; C220D) (protein)
chain: MSSSSKSLKIGIVGFGTFGQFLANTMIKQGHTLTATSRTDYSQLCDQMGIHFFRDITAFLDADMDVILLCTSISSLSEVVGSMPLACLKRPTLFVDVLSVKEHPKNLLLKVLPEESDILCTHPMFGPVSGKNGWQNLTFMFDKVRIKDEVTCSKFLQIFASEGCKMVEMSCEEHDKAAAKSQFITHTIGRTLAEMDIKSTPIDTKGFQTLVELKKPVMGDSFDLYSGLFVYNRFARQELENLEHALHKVKEMLVQRIDEGQNPERTES
Km [9]: 1530 ± 90 µM | kcat [9]: 0.5 ± 0.1 s⁻¹ | kcat/Km [9]: 327 M⁻¹ s⁻¹ | Km [10]: 270 ± 10 µM | kcat [10]: 46.8 ± 4.2 s⁻¹ | kcat/Km [10]: 173000 M⁻¹ s⁻¹

B6: Glycine max GmPDH1 variant N222D, SEQ ID NO: 2 (Glycine max; N222D) (protein)
chain: MSTSSSSQSLKIGIVGFGNFGQFLAKTMIKQGHTLTATSRSDYSELCLQMGIHFFRDVSAFLTADIDVIVLCTSILSLSEVVGSMPLTSLKRPTLFVDVLSVKEHPRELLLRELPEDSDILCTHPMFGPQTAKNGWTDHTFMYDKVRIRDEVICSNFIQIFATEGCKMVQMSCEEHDRAAAKSQFITHTIGRTLGEMDIQSTPIDTKGFETLVKLKETMMRDSFDLYSGLFVYNRFARQELENLEHALHKVKETLMIQRTNGEQGHKRTES
Km [11]: 7580 ± 1130 µM | kcat [11]: 19.1 ± 1.4 s⁻¹ | kcat/Km [11]: 2520 M⁻¹ s⁻¹ | Km [12]: 530 ± 180 µM | kcat [12]: 27.8 ± 3.5 s⁻¹ | kcat/Km [12]: 52400 M⁻¹ s⁻¹

B7: Glycine max GmPDH1 variant N222A (Glycine max; N222A) (protein)
chain: MSTSSSSQSLKIGIVGFGNFGQFLAKTMIKQGHTLTATSRSDYSELCLQMGIHFFRDVSAFLTADIDVIVLCTSILSLSEVVGSMPLTSLKRPTLFVDVLSVKEHPRELLLRELPEDSDILCTHPMFGPQTAKNGWTDHTFMYDKVRIRDEVICSNFIQIFATEGCKMVQMSCEEHDRAAAKSQFITHTIGRTLGEMDIQSTPIDTKGFETLVKLKETMMRASFDLYSGLFVYNRFARQELENLEHALHKVKETLMIQRTNGEQGHKRTES
Km [13]: 190 ± 40 µM | kcat [13]: 6.6 ± 0.3 s⁻¹ | kcat/Km [13]: 34700 M⁻¹ s⁻¹

B8: Glycine max GmPDH1 variant M219T (Glycine max; M219T) (protein)
chain: MSTSSSSQSLKIGIVGFGNFGQFLAKTMIKQGHTLTATSRSDYSELCLQMGIHFFRDVSAFLTADIDVIVLCTSILSLSEVVGSMPLTSLKRPTLFVDVLSVKEHPRELLLRELPEDSDILCTHPMFGPQTAKNGWTDHTFMYDKVRIRDEVICSNFIQIFATEGCKMVQMSCEEHDRAAAKSQFITHTIGRTLGEMDIQSTPIDTKGFETLVKLKETTMRNSFDLYSGLFVYNRFARQELENLEHALHKVKETLMIQRTNGEQGHKRTES
Km [14]: 100 ± 20 µM | kcat [14]: 30.3 ± 0.8 s⁻¹ | kcat/Km [14]: 303000 M⁻¹ s⁻¹ | Km [15]: 1550 ± 140 µM | kcat [15]: 4.6 ± 0.3 s⁻¹ | kcat/Km [15]: 2970 M⁻¹ s⁻¹

B9: Glycine max GmPDH1 variant M219T/N222D (Glycine max; M219T/N222D) (protein)
chain: MSTSSSSQSLKIGIVGFGNFGQFLAKTMIKQGHTLTATSRSDYSELCLQMGIHFFRDVSAFLTADIDVIVLCTSILSLSEVVGSMPLTSLKRPTLFVDVLSVKEHPRELLLRELPEDSDILCTHPMFGPQTAKNGWTDHTFMYDKVRIRDEVICSNFIQIFATEGCKMVQMSCEEHDRAAAKSQFITHTIGRTLGEMDIQSTPIDTKGFETLVKLKETTMRDSFDLYSGLFVYNRFARQELENLEHALHKVKETLMIQRTNGEQGHKRTES
Km [16]: 1180 ± 120 µM | kcat [16]: 2.5 ± 0.3 s⁻¹ | kcat/Km [16]: 2120 M⁻¹ s⁻¹ | Km [17]: 630 ± 180 µM | kcat [17]: 29 ± 4.4 s⁻¹ | kcat/Km [17]: 46000 M⁻¹ s⁻¹
